Experimental data published in publication PMC5797019, “Peptide inhibition of the SETD6 methyltransferase catalytic activity” (Oncotarget, 2017).

Molecular target: GST-SETD6 (UniProt Q8TBK2)
Sequence (Q8TBK2 whole entry): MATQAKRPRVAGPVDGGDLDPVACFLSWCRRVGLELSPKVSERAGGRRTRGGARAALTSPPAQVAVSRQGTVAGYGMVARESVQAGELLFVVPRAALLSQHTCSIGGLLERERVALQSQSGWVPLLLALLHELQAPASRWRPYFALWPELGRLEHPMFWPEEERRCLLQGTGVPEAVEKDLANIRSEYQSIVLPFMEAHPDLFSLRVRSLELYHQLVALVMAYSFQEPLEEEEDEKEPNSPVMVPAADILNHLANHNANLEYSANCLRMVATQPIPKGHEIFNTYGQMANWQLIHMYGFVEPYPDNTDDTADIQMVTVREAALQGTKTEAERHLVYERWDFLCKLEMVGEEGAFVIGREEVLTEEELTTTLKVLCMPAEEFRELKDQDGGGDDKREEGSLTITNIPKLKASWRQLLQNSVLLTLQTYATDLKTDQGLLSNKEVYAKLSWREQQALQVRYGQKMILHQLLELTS

“vp22-RelA302-316 peptide (from UniProt Q04206 302-316)” was tested, and the auto-methylation signal of recombinant GST-SETD6 (in vitro methylation assay with 3H-labeled S-adenosyl methionine) with increasing amounts of vp22-RelA; significant reduction at 0.5 μM was 2 µM.
